Changes are numbered by the printed parent chain.
T1: FcγRIIa(R) extracellular domain with C-terminal His tag (human, UniProt P12318 34-217)
T1 construct: extracellular domain; R131 allotype; also called 2aR; CD32
T1 sequence: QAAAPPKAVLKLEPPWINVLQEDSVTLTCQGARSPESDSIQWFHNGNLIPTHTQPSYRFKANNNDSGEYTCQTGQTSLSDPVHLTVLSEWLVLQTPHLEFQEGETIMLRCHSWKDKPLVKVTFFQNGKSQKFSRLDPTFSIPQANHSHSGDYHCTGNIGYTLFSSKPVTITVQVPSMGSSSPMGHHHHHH

T2: FcγRIIa(H) extracellular domain with C-terminal His tag (human, UniProt P12318 34-217)
T2 construct: extracellular domain; H131 allotype; also called 2aH; CD32
T2 sequence: T1 sequence with R134H

T3: FcγRIIb extracellular domain with C-terminal His tag (human, UniProt P31994 43-217)
T3 construct: extracellular domain; also called 2b; CD32
T3 sequence: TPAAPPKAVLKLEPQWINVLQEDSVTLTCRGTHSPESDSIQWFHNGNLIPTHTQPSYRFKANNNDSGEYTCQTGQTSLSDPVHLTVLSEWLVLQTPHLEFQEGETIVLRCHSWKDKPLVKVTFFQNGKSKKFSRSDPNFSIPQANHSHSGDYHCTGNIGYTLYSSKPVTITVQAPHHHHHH

B1: GpH7-A5/GpH7-B3 variant P331_07I/GpL16-k0 (antibody, human IgG1, kappa)
heavy 1: not shown
heavy 2: not shown
light: DIVMTQSPLSLPVTPGEPASISCQASESLVHSNRNTYLHWYLQKPGQSPQLLIYKVSNRFSGVPDRFSGSGSGTDFTLKISRVEAEDVGVYYCSQNTHVPPTFGQGTKVEIERTVAAPSVFIFPPSDEQLKSGTASVVCLLNNFYPREAKVQWKVDNALQSGNSQESVTEQDSKDSTYSLSSTLTLSKADYEKHKVYACEVTHQGLSSPVTKSFNRGEC
notes: heterodimerized IgG1 (He Ab), mutation in one H chain only; also called He Ab
B2: GpH7-A5/GpH7-B3 variant S337_09D/GpL16-k0 (antibody, human IgG1, kappa)
heavy 1: not shown
heavy 2: not shown
light: B1 light
notes: as for B1
B3: GpH7-A5/GpH7-B3 variant T335_01G/GpL16-k0 (antibody, human IgG1, kappa)
heavy 1: not shown
heavy 2: not shown
light: B1 light
notes: as for B1
B4: GpH7-A5/GpH7-B3 variant S337_01G/GpL16-k0 (antibody, human IgG1, kappa)
heavy 1: not shown
heavy 2: not shown
light: B1 light
notes: as for B1
B5: GpH7-A5/GpH7-B3 variant S337_12R/GpL16-k0 (antibody, human IgG1, kappa)
heavy 1: not shown
heavy 2: not shown
light: B1 light
notes: as for B1
B6: GpH7-A5/GpH7-B3 variant P331_18N/GpL16-k0 (antibody, human IgG1, kappa)
heavy 1: not shown
heavy 2: not shown
light: B1 light
notes: as for B1
B7: GpH7-A5/GpH7-B3 variant P331_14T/GpL16-k0 (antibody, human IgG1, kappa)
heavy 1: not shown
heavy 2: not shown
light: B1 light
notes: as for B1
B8: GpH7-A5/GpH7-B3 variant T335_04F/GpL16-k0 (antibody, human IgG1, kappa)
heavy 1: not shown
heavy 2: not shown
light: B1 light
notes: as for B1
B9: GpH7-A5/GpH7-B3 variant S337_06M/GpL16-k0 (antibody, human IgG1, kappa)
heavy 1: not shown
heavy 2: not shown
light: B1 light
notes: as for B1
B10: GpH7-A5/GpH7-B3 variant S337_10E/GpL16-k0 (antibody, human IgG1, kappa)
heavy 1: not shown
heavy 2: not shown
light: B1 light
notes: as for B1
B11: GpH7-A5/GpH7-B3 variant T335_02A/GpL16-k0 (antibody, human IgG1, kappa)
heavy 1: not shown
heavy 2: not shown
light: B1 light
notes: as for B1
B12: GpH7-A5/GpH7-B3 variant P331_16H/GpL16-k0 (antibody, human IgG1, kappa)
heavy 1: not shown
heavy 2: not shown
light: B1 light
notes: as for B1
B13: GpH7-A5/GpH7-B3 variant P331_10E/GpL16-k0 (antibody, human IgG1, kappa)
heavy 1: not shown
heavy 2: not shown
light: B1 light
notes: as for B1
B14: GpH7-A5/GpH7-B3 variant P331_11K/GpL16-k0 (antibody, human IgG1, kappa)
heavy 1: not shown
heavy 2: not shown
light: B1 light
notes: as for B1
B15: GpH7-A5/GpH7-B3 variant S337_02A/GpL16-k0 (antibody, human IgG1, kappa)
heavy 1: not shown
heavy 2: not shown
light: B1 light
notes: as for B1
B16: GpH7-A5/GpH7-B3 variant P331_08L/GpL16-k0 (antibody, human IgG1, kappa)
heavy 1: not shown
heavy 2: not shown
light: B1 light
notes: as for B1
B17: GpH7-A5/GpH7-B3 variant P331_13S/GpL16-k0 (antibody, human IgG1, kappa)
heavy 1: not shown
heavy 2: not shown
light: B1 light
notes: as for B1
B18: GpH7-A5/GpH7-B3 variant P331_20W/GpL16-k0 (antibody, human IgG1, kappa)
heavy 1: not shown
heavy 2: not shown
light: B1 light
notes: as for B1
B19: GpH7-A5/GpH7-B3 variant T335_03V/GpL16-k0 (antibody, human IgG1, kappa)
heavy 1: not shown
heavy 2: not shown
light: B1 light
notes: as for B1
B20: GpH7-A5/GpH7-B3 variant S337_18N/GpL16-k0 (antibody, human IgG1, kappa)
heavy 1: not shown
heavy 2: not shown
light: B1 light
notes: as for B1
B21: GpH7-A5/GpH7-B3 variant P331_12R/GpL16-k0 (antibody, human IgG1, kappa)
heavy 1: not shown
heavy 2: not shown
light: B1 light
notes: as for B1
B22: GpH7-A5/GpH7-B3 variant P331_09D/GpL16-k0 (antibody, human IgG1, kappa)
heavy 1: not shown
heavy 2: not shown
light: B1 light
notes: as for B1
B23: GpH7-A5/GpH7-B3 variant S337_04F/GpL16-k0 (antibody, human IgG1, kappa)
heavy 1: not shown
heavy 2: not shown
light: B1 light
notes: as for B1
B24: GpH7-A5/GpH7-B3 variant S337_03V/GpL16-k0 (antibody, human IgG1, kappa)
heavy 1: not shown
heavy 2: not shown
light: B1 light
notes: as for B1
B25: GpH7-A5/GpH7-B3 variant P331_19Q/GpL16-k0 (antibody, human IgG1, kappa)
heavy 1: not shown
heavy 2: not shown
light: B1 light
notes: as for B1
B26: GpH7-A5/GpH7-B3 variant P331_15Y/GpL16-k0 (antibody, human IgG1, kappa)
heavy 1: not shown
heavy 2: not shown
light: B1 light
notes: as for B1

These binders were tested against T4, FcγRIa extracellular domain with C-terminal His tag (human, UniProt P12314 16-292) (assay: SPR; % of GpH7-A5/GpH7-B3/GpL16-k0).
T4 construct: extracellular domain; also called 1a; CD64
T4 sequence (P12314 other isoform, or with tags, fused parts or gaps): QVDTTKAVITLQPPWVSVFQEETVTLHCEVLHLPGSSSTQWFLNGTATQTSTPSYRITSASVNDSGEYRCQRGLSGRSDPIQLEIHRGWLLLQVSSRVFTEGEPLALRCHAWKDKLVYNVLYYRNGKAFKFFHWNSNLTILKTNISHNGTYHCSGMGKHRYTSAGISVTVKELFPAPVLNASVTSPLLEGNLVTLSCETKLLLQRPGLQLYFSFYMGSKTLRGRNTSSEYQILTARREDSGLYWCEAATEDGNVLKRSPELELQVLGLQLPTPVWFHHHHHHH

Binder | He/Con 1a
B1 | 106%
B2 | 102%
B3 | 108%
B4 | 103%
B5 | 103%
B6 | 106%
B7 | 102%
B8 | 108%
B9 | 104%
B10 | 103%
B11 | 107%
B12 | 105%
B13 | 108%
B14 | 100%
B15 | 102%
B16 | 105%
B17 | 108%
B18 | 107%
B19 | 108%
B20 | 102%
B21 | 100%
B22 | 109%
B23 | 103%
B24 | 103%
B25 | 108%
B26 | 109%

These binders were tested against T1, FcγRIIa(R) extracellular domain with … (assay: SPR; % of GpH7-A5/GpH7-B3/GpL16-k0).

Binder | He/Con 2aR
B1 | 109%
B2 | 117%
B3 | 110%
B4 | 101%
B5 | 109%
B6 | 104%
B7 | 104%
B8 | 113%
B9 | 107%
B10 | 114%
B11 | 108%
B12 | 113%
B13 | 112%
B14 | 94.6%
B15 | 107%
B16 | 101%
B17 | 104%
B18 | 109%
B19 | 112%
B20 | 108%
B21 | 88.7%
B22 | 101%
B23 | 106%
B24 | 108%
B25 | 96.1%
B26 | 112%

What follows are binders tested against T2, FcγRIIa(H) extracellular domain with … (assay: SPR; % of GpH7-A5/GpH7-B3/GpL16-k0).

Binder | He/Con 2aH
B1 | 80.1%
B2 | 114%
B3 | 107%
B4 | 98.7%
B5 | 105%
B6 | 87.2%
B7 | 86.5%
B8 | 107%
B9 | 104%
B10 | 109%
B11 | 104%
B12 | 87.5%
B13 | 90.1%
B14 | 83.7%
B15 | 103%
B16 | 85.9%
B17 | 94%
B18 | 85.8%
B19 | 107%
B20 | 106%
B21 | 84.3%
B22 | 93.6%
B23 | 105%
B24 | 104%
B25 | 91.6%
B26 | 89%

Each binder was assayed against T3, FcγRIIb extracellular domain with … (assay: SPR; % of GpH7-A5/GpH7-B3/GpL16-k0).

Binder | He/Con 2b
B1 | 127%
B2 | 124%
B3 | 106%
B4 | 100%
B5 | 108%
B6 | 110%
B7 | 111%
B8 | 112%
B9 | 106%
B10 | 117%
B11 | 103%
B12 | 128%
B13 | 128%
B14 | 93.9%
B15 | 106%
B16 | 106%
B17 | 107%
B18 | 123%
B19 | 109%
B20 | 113%
B21 | 85%
B22 | 104%
B23 | 107%
B24 | 108%
B25 | 94%
B26 | 127%

The binders below were run against T5, FcγRIIIa extracellular domain with C-terminal His tag (human, UniProt P08637 17-208) (assay: SPR; % of GpH7-A5/GpH7-B3/GpL16-k0).
T5 construct: extracellular domain; also called 3a; CD16
T5 sequence (P08637 other isoform, or with tags, fused parts or gaps): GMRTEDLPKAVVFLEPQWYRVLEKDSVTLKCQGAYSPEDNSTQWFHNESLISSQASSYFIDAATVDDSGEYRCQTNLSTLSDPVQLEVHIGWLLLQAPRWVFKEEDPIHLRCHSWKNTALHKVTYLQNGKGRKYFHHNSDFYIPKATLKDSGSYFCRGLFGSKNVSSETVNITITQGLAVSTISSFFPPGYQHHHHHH

Binder | He/Con 3a
B1 | 60.4%
B2 | 102%
B3 | 95.1%
B4 | 95.2%
B5 | 92.7%
B6 | 67.1%
B7 | 67.8%
B8 | 91.7%
B9 | 89.7%
B10 | 97.8%
B11 | 90.9%
B12 | 73.4%
B13 | 68.7%
B14 | 61.8%
B15 | 92.4%
B16 | 66%
B17 | 80.9%
B18 | 71.9%
B19 | 96.3%
B20 | 96.9%
B21 | 64.8%
B22 | 71.6%
B23 | 94.4%
B24 | 87.1%
B25 | 73.9%
B26 | 74.9%

Reference: US20260167699A1 (Chugai, published 2026)
